# Data from the supplement of paper PMC10065799, “High-throughput profiling of sequence recognition by tyrosine kinases and SH2 domains using bacterial peptide display” (eLife, 2023).
# Target: Hck (UniProt P08631)
# Test: phosphorylation enrichment, bacterial display (enrichment ratio); higher = better substrate or ligand; peptides without Tyr show the background
# 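Note: 11-residue human phosphosite peptides and single-mutation variants displayed on the E. coli surface, counted by deep sequencing, each peptide's frequency after selection divided by its frequency in the unselected input library; frequency after pTyr selection over input frequency; kinase dosed for 20-30% of maximal phosphorylation in three min.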
# Hck, sequence (P08631 whole entry, looked up): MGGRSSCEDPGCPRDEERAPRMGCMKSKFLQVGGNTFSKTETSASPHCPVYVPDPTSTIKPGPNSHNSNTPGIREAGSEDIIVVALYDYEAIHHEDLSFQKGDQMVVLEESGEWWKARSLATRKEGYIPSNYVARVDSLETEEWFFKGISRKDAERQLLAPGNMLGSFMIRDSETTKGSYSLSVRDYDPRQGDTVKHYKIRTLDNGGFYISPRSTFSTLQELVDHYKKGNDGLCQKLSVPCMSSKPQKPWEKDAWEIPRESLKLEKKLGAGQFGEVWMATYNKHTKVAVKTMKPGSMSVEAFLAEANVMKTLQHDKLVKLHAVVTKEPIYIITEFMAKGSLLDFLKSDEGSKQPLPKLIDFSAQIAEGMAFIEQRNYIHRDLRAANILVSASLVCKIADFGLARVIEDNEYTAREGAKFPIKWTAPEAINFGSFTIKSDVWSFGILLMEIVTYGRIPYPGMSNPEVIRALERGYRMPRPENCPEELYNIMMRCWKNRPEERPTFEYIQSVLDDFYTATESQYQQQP
row,Sequence,phosphorylation enrichment
1,SGSIHYSRVPR [GLB1_Y57],0.529
2,KDHLDYKYQPR [SOX9_Y172_P170L],0.415
3,VVLVSYVPFSQ [SH2B1_Y624_S627F],0.648
4,QYKDKYLAKHN [CASK_Y712],0.207
5,MAFDRYVAVCA [OR52J3_Y125],0.537
6,TEDELYQLSLQ [RASGRP2_Y378],0.896
7,EKQVAYCPSGR [ROS1_Y2323_K2328R],0.501
8,ASNNPYFRDQA [RPGRIP1_Y846],0.449
9,GVFSRHFTTFD [CLCA1_Y661_Y661H_YF],1.03
10,DLDFTYIYPNI [PTEN_Y27_L25F],1.37
11,GASRRYGSGVS [NEU1_Y242_W240R],0.437
12,RRVLVYRGRGA [QDPR_Y16_G17R],0.782
13,NTGNYYDLYGG [PTPN11_Y63_D61N],6.84
14,VNKIFYPDFIV [LIG3_Y768_YF],0.529
15,GKSFTYAAFHA [KCNT1_Y563],4.03
16,QTEAEYRFIFM [PTPN11_Y511_Q510E_YF],0.626
17,IGSHAYGDQYR [IDH1_Y135_R132S],0.342
18,GGYTCYSDGKK [PROS1_Y266_C267S],0.499
19,INQGPYENHSV [ATP6V1B1_Y462_R465H],0.4
20,KEKLCYVALDF [ACTA1_Y220],1.27
21,KDQPDYKYQPR [SOX9_Y172_H169Q],0.378
22,FLENFYDLKKD [MMP3_Y42_YF],1.92
23,SSPQPYLVPFL [TAF4_Y652],0.481
24,AVIADYMFWLG [SPATA16_Y290_M286V],1.34
25,SISLRYEGRVF [ABL1_Y167_YF],0.507
26,ENRKYYKDLKE [PURA_Y156_M157K],0.295
27,DPFHVYIKNHV [KCNE3_Y95_R99H_YF],0.519
28,SVKVFYKKCWS [EPHA7_Y202_YF],0.457
29,MSRDIYSTDFF [NTRK1_Y676_YF],4.34

# Target: Jak2 (UniProt O60674)
# Sequence (O60674 whole entry, looked up): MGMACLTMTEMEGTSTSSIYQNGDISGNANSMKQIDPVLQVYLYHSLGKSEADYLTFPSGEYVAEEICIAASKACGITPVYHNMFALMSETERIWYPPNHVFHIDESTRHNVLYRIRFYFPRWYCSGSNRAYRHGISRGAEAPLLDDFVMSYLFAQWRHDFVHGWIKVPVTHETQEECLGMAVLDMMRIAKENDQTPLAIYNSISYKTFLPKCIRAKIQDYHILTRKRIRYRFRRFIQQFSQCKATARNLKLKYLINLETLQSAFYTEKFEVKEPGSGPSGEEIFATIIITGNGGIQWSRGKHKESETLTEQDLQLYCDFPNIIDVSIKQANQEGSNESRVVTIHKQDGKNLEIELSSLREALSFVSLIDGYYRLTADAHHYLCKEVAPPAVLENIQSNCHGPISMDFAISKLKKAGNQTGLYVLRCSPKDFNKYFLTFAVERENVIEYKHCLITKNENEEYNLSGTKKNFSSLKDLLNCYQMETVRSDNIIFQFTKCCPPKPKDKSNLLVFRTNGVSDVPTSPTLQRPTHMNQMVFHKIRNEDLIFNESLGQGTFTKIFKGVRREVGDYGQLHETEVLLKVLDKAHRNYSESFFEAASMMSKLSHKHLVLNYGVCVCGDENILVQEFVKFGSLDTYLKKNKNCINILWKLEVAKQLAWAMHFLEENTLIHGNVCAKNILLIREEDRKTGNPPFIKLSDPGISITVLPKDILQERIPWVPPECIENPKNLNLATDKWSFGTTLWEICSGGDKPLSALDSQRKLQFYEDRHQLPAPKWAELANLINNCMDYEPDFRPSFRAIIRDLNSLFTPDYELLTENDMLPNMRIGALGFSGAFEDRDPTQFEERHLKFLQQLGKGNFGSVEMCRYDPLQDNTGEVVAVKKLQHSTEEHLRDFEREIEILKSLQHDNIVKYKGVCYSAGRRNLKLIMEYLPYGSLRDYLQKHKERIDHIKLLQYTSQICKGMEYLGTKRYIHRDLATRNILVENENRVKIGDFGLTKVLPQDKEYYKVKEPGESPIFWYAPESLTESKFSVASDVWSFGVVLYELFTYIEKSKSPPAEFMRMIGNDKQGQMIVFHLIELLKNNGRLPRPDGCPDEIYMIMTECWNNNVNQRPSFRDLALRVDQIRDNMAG
# Test: as above
row,Sequence,phosphorylation enrichment
1,SGSIHYSRVPR [GLB1_Y57],0.772
2,KDHLDYKYQPR [SOX9_Y172_P170L],0.452
3,VVLVSYVPFSQ [SH2B1_Y624_S627F],1.38
4,QYKDKYLAKHN [CASK_Y712],0.605
5,MAFDRYVAVCA [OR52J3_Y125],0.995
6,TEDELYQLSLQ [RASGRP2_Y378],1.04
7,EKQVAYCPSGR [ROS1_Y2323_K2328R],1.27
8,ASNNPYFRDQA [RPGRIP1_Y846],0.547
9,GVFSRHFTTFD [CLCA1_Y661_Y661H_YF],0.483
10,DLDFTYIYPNI [PTEN_Y27_L25F],2.36
11,GASRRYGSGVS [NEU1_Y242_W240R],0.436
12,RRVLVYRGRGA [QDPR_Y16_G17R],0.692
13,NTGNYYDLYGG [PTPN11_Y63_D61N],2.42
14,VNKIFYPDFIV [LIG3_Y768_YF],0.811
15,GKSFTYAAFHA [KCNT1_Y563],0.826
16,QTEAEYRFIFM [PTPN11_Y511_Q510E_YF],1.24
17,IGSHAYGDQYR [IDH1_Y135_R132S],0.554
18,GGYTCYSDGKK [PROS1_Y266_C267S],1.01
19,INQGPYENHSV [ATP6V1B1_Y462_R465H],0.68
20,KEKLCYVALDF [ACTA1_Y220],2.68
21,KDQPDYKYQPR [SOX9_Y172_H169Q],0.617
22,FLENFYDLKKD [MMP3_Y42_YF],0.922
23,SSPQPYLVPFL [TAF4_Y652],2.85
24,AVIADYMFWLG [SPATA16_Y290_M286V],3.42
25,SISLRYEGRVF [ABL1_Y167_YF],0.918
26,ENRKYYKDLKE [PURA_Y156_M157K],0.772
27,DPFHVYIKNHV [KCNE3_Y95_R99H_YF],1.2
28,SVKVFYKKCWS [EPHA7_Y202_YF],1.21
29,MSRDIYSTDFF [NTRK1_Y676_YF],0.726
